The subject of one assay is HUVEC cells. In words: HUVEC migration, modified Boyden chamber assay. In kind it is cell-based, human. As for the experimental part:
One of the central aspects of VEGF action on endothelial cells is its ability to act as a chemoattractant and stimulate the migration of endothelial cells. HUVEC cell migration was analyzed in a modified Boyden chamber assay as follows.
Falcon 8.0 micron filter inserts (Falcon 3097) were coated with type 1 collagen (VITROGEN, COHESION). HUVEC (obtained from Cell Systems, <passage 8) were grown in Cell Systems complete media (4ZO-500) with 10% FCS. Cells were trypsinized and transferred to EBM (Endothelial basal media, Clonetics) with 0.1% BSA for the assay. Cells were plated at 5×10^4 per upper chamber. […] The assay was routinely an 18 hour assay at 37° C. For the LY294002 inhibitor experiments, cells were allowed to adhere for 30 minutes prior to addition of the inhibitor. 20 minutes after inhibitor addition, VEGF was added to the bottom well and the assay was allowed to proceed for only 4 hours to avoid the occurrence of apoptosis associated with the treatment of these primary cells with LY294002 (purchased from Biomol).
Cells were removed from the upper side of the membrane by scraping with a polyurethane swab and then the remaining cells on the bottom side of the membrane were fixed with methanol. Cells were stained with Yo-Pro Iodide nuclear stain (Molecular Probes) and counted under low power fluorescence using an Image-Pro cell recognition program.

The target in a further assay is Flt-1 receptor. The experiment in a line: RIA assay, binding to FLT-1 receptor. As for the experimental part:
Various assays were conducted to examine the properties and biological activities of the I43A/I46A/Q79A/I83A Flt-sel variant. For example, quantitative binding measurements were carried out using a soluble radio-immuno receptor-binding assay (RIA), as described in Example 6 above.

In a further assay the test system is PLC-gamma in HUVEC cells. The experiment in a line: PLC-gamma tyrosine phosphorylation after immunoprecipitation. The format is cell-based, human. The following applies: 20 ng/ml, 5 minutes, FIG. 13A. As for the experimental part:
In order to determine which VEGF receptor(s) are involved in PLC-gamma activation in primary endothelial cells, HUVEC cells were treated with native VEGF or VEGF receptor-selective variants and PLC-gamma phosphorylation was assessed after immunoprecipitation.
Passage 4–7 HUVEC cells (Cell Systems, Kirkland, Wash.) were grown in Cell System's complete medium (AZ0-500) with 10% fetal calf serum and growth factors on gelatin-coated dishes and made quiescent by 14 hour starvation in 0.2% serum. […] The cells were then lysed in 0.5–1 ml RIPA buffer containing 0.1 mM sodium orthovanadate, 5 mM para-nitrophenylphosphate, 10 mM sodium fluoride, 0.5 micromolar okadaic acid and a protease inhibitor cocktail (Roche MB 1836145). PLC-gamma was then immunoprecipitated from whole cell lysates using monoclonal antibodies (Upstate Biotechnology) and analyzed for tyrosine phosphorylation (FIG. 13A) or lysates were immunoprecipitated with monoclonal antibodies against p85 PI 3′-kinase (purchased from Transduction Labs (P13020) and Neomarkers (MS424-P)) and tested for phosphotyrosine using phosphotyrosine antibodies PY20 or E120H (Transduction Labs) (FIG. 13B). Immunoprecipitation was conducted as follows. Protein A/G beads (Pierce) were blocked for nonspecific protein binding in 50 mM HEPES pH 7.2, 0.1% TX-100, 150 mM NaCl and 1 mg/ml ovalbumin for 30 minutes. Antibodies were precoupled in the same buffer for 1 hour at 4° C. with head over end rotation and beads were washed 3 times in lysis buffer. Beads were added to the lysates and rotated overnight. Beads were washed sequentially in 50 mM Tris pH 7.6, 150 mM NaCl, 1% TX-100, 1 mM CaCl2; 50 mM Tris pH 7.6, 500 mM NaCl, 0.1% TX-100, 1 mM CaCl2 and 50 mM Tris pH 7.6, 150 mM NaCl, 0.05% TX-100, 1 mM CaCl2. Beads were then resuspended in 2× sample buffer and boiled. Supernatants were applied directly to 4–12% Tris-Glycine gradient gels (Novex).

Assay [1] addresses T1, KDR receptor (soluble radio-immuno receptor-binding assay) (UniProt P35968 20-764, limits assumed).
T1 construct: the receptor construct is not described
The experiment in a line: soluble radio-immuno receptor-binding assay (RIA). As for the experimental part: For example, quantitative binding measurements were carried out using a soluble radio-immuno receptor-binding assay (RIA), as described in Example 6 above.

The test system of assay [2] is ERK1 and ERK2 in HUVEC cells. In words: Activation of MAP kinases, ERK1/ERK2 phosphorylation Western blot. In kind it is cell-based, human. The following applies: 50 ng/ml or 10 ng/ml, 5 minutes, FIG. 12A. As for the experimental part:
Passage 4–7 HUVEC cells (Cell Systems, Kirkland, Wash.) were grown in Cell System's complete medium (AZ0-500) with 10% fetal calf serum and growth factors on gelatin-coated dishes and made quiescent by 14 hour starvation in 0.2% serum. […] The HUVEC cells were then lysed in 0.5–1 ml RIPA buffer containing 0.1 mM sodium orthovanadate, 5 mM para-nitrophenylphosphate, 10 mM sodium fluoride, 0.5 micromolar okadaic acid and a protease inhibitor cocktail (Roche MB 1836145). Western blot analysis was then conducted, probing for phosphorylated ERK1 or ERK2 using anti-phospho ERK antiserum (Promega).
(In western blotting, separated proteins are transferred to a membrane and probed.)

The next assay has as its system corneal angiogenesis. In words: Corneal pocket angiogenesis assay. The format is in vivo, Sprague-Dawley rats. Particulars: rat, pellet with 200 ng growth factor, day 6, FIGS. 15A and 15B. As for the experimental part: Assays were performed as described by Polyerini et al., Methods Enzymol., 198:440–450 (1991) with the following modifications. Sprague-Dawley rats were anesthetized using a gas (isoflurane)/injectable ketamine (80 mg/kg)/xylazine (15 mg/kg) combination. The eyes were gently proptosed and secured in place using nontraumatic forceps. With a #15 blade, a 1.5 mm incision was made slightly below the center of the cornea. Using a micro spatula (ST80017, ASSI), the incision was carefully blunt-dissected through the stroma toward the outer canthus of the eye. […] After surgery, the eyes were coated with gentamicin ointment. At day 6, the animals were injected with high molecular weight FITC-dextran and euthanized to allow for visualization of the vasculature. Corneal whole mounts were made of the enucleated eyes and measurements of the neovascular area completed using computer-assisted image analysis (Image-Pro Plus).

Assay [3] has as its target gD-KDR receptor on CHO cells (UniProt P35968 20-1356). In words: cell-based or functional assay.
In assay [4] the target is KDR receptor on HUVEC cells (human, UniProt P35968 20-1356). In words: cell-based or functional assay.
In a further assay the target is KDR receptor (Homo sapiens, UniProt P35968). In words: KDR receptor binding ELISA (inhibition of biotinylated native VEGF (8–109) binding). The following applies: second figure of the cell, variant midpoint concentration divided by that of native VEGF. As for the experimental part: (§1) Receptor binding assays were performed in 96-well immunoplates (Maxisorp, Nunc-Immunoplate, Nalge Nunc International, Rochester, N.Y.). Each well was coated with 100 μl of a solution containing 8 μg/ml of a monoclonal antibody to KDR known as MAKD5 (Genentech, South San Francisco, Calif.) in 50 mM carbonate buffer at pH 9.6 and incubated at 4° C. overnight. The supernatant was discarded, the wells were washed three times in washing buffer (0.05% Tween 20 in PBS), and the plate was blocked (150 μl per well) with block buffer (0.5% BSA, 0.01% thimerosal in PBS) at room temperature for one hour. The supernatant was discarded, and the wells were washed.
Aliquots of this mixture (100 μl) were added to the precoated microtiter wells and the plate was incubated for 1 hour at room temperature. […] The wells were then incubated with 3, 3′, 5,5′-tetramethyl benzidine (0.2 gram/liter; Kirkegaard & Perry Laboratories, Gaithersburg, Md.) for about 10 minutes at room temperature. Absorbance was read at 450 nm on a Vmax plate reader (Molecular Devices, Menlo Park, Calif.).
(§2) Titration curves were fit with a four-parameter nonlinear regression curve-fitting program (KaleidaGraph, Synergy Software, Reading, Pa.).
(In general: ELISA stands for enzyme-linked immunosorbent assay.)

Assay [5] concerns the target T1, KDR receptor (soluble radio-immuno …). In words: RIA (essentially as Muller et al. 1997).
Assay [6] addresses T2, FLT-1 receptor (soluble radio-immuno receptor-binding assay) (UniProt P17948 27-758, limits assumed).
T2 construct: the receptor construct is not described
In words: RIA (essentially as Muller et al. 1997).

The next assay has as its target T3, Flt-IgG (UniProt P17948 27-758, limits assumed).
T3 construct: also called chimeric Flt-human Fc molecule; not shown: human IgG Fc
In words: competition ELISA vs biotinylated native VEGF for Flt-IgG. As for the experimental part:
Receptor binding assays were performed in 96-well immunoplates (Maxisorp, Nunc-Immunoplate, Nalge Nunc International, Rochester, N.Y.). Each well was coated with 100 μl of a solution containing 2 μg/ml of rabbit F(ab')2 to human IgG Fc (Jackson ImmunoResearch, West Grove, Pa.) in 50 mM carbonate buffer at pH 9.6 and incubated at 4° C. overnight. The supernatant was then discarded, the wells were washed three times in washing buffer (0.05% Tween 20 in PBS), and the plate was blocked (150 μl per well) with block buffer (0.5% BSA, 0.01% thimerosal in PBS) at room temperature for one hour. The supernatant was discarded, and the wells were washed.
The wells were filled with 100 μl of a solution containing Flt-IgG (a chimeric Flt-human Fc molecule) at 50 ng/ml in assay buffer (0.5% BSA, 0.05% Tween 20 in PBS). The wells were incubated at room temperature for 1 hour and then washed three times in wash buffer (0.05% Tween 20 in PBS).
Aliquots of the mixture (100 μl) were added to the precoated microtiter wells and the plate was incubated for 2 hours at room temperature. […] The wells were then incubated with 3, 3', 5,5'-tetramethyl benzidine (0.2 g/liter, Kirkegaard & Perry Laboratories, Gaithersburg, Md.) for about 10 minutes at room temperature. Absorbance was read at 450 nm on a Vmax plate reader (Molecular Devices, Menlo Park, Calif.).

In a further assay the target is T4, KDR (1-3) (UniProt P35968 20-327, limits assumed).
T4 construct: domain: domains 1 to 3; Genentech reagent; also called KDR (1-3) monomer; domains 1 to 3 of KDR
The experiment in a line: competition ELISA vs biotinylated native VEGF (8-109) for KDR (1-3). As for the experimental part: as §1
Aliquots of this mixture (100 μl) were added to the precoated microtiter wells and the plate was incubated for 1 hour at room temperature. […] The wells were then incubated with 3, 3', 5,5'-tetramethyl benzidine (0.2 gram/liter; Kirkegaard & Perry Laboratories, Gaithersburg, Md.) for about 10 minutes at room temperature. Absorbance was read at 450 nm on a Vmax plate reader (Molecular Devices, Menlo Park, Calif.).
as §2

Some results are limits rather than exact numbers.

T1 sequence (P35968 20-764 limits assumed): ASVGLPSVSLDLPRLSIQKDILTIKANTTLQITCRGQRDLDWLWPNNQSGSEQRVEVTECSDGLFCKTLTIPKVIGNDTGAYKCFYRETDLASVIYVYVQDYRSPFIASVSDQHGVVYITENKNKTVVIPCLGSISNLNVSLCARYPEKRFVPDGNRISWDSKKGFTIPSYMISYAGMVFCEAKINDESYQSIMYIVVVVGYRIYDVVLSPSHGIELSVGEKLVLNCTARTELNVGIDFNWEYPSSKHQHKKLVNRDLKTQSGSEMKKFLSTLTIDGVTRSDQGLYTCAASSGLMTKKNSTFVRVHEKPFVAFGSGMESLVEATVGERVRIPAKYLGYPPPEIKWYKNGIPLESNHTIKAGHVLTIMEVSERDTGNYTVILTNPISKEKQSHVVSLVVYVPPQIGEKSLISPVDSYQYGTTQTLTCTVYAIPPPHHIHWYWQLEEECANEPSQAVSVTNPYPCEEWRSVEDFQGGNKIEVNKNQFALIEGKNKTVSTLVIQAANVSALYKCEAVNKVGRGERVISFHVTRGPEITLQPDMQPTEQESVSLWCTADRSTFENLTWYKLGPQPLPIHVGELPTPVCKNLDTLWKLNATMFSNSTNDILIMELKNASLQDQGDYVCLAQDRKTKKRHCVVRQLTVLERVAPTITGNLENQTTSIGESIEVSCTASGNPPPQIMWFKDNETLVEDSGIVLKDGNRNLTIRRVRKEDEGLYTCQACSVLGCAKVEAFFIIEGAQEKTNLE
Chain of Flt-1 receptor (P17948 27-331 limits assumed): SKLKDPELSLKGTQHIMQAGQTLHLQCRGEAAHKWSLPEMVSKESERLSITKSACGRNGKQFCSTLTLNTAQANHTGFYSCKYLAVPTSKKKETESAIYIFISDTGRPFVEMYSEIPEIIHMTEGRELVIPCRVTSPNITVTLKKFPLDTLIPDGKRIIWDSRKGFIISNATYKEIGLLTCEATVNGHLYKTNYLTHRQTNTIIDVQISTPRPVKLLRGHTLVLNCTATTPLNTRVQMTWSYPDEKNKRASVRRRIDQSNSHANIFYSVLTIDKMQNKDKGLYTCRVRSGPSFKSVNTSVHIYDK
T4 sequence (P35968 20-327 limits assumed): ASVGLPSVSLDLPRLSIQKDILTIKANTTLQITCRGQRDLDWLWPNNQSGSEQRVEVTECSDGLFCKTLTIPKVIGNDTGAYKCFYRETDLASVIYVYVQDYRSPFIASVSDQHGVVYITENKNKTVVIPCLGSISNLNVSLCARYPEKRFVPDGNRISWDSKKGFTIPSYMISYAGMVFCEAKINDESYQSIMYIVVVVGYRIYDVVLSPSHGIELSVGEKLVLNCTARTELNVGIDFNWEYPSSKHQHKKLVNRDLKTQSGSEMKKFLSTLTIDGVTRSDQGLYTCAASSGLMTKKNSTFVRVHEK
Chain of KDR receptor (P35968 20-327 limits assumed): as above
T2 sequence (P17948 27-758 limits assumed): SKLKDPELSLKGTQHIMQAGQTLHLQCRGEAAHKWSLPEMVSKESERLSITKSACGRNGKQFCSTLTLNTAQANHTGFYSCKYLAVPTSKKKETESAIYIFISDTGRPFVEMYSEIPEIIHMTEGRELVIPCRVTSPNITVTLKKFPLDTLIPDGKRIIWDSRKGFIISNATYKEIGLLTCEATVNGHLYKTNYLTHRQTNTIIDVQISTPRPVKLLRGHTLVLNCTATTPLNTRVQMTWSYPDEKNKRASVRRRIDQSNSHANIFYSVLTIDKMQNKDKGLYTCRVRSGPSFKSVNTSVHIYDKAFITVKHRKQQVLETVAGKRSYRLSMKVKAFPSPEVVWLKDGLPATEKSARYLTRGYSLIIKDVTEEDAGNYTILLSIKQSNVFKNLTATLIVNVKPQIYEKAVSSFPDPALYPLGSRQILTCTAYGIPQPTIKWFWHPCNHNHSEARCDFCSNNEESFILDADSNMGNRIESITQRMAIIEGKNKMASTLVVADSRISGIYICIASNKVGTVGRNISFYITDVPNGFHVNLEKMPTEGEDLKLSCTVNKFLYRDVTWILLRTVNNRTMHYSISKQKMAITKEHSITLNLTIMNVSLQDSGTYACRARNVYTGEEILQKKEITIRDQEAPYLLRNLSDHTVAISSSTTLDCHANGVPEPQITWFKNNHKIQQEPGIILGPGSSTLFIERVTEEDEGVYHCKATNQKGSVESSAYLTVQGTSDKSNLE
T3 sequence (P17948 27-758 limits assumed): as above
Chain of KDR receptor on HUVEC cells (P35968 20-1356): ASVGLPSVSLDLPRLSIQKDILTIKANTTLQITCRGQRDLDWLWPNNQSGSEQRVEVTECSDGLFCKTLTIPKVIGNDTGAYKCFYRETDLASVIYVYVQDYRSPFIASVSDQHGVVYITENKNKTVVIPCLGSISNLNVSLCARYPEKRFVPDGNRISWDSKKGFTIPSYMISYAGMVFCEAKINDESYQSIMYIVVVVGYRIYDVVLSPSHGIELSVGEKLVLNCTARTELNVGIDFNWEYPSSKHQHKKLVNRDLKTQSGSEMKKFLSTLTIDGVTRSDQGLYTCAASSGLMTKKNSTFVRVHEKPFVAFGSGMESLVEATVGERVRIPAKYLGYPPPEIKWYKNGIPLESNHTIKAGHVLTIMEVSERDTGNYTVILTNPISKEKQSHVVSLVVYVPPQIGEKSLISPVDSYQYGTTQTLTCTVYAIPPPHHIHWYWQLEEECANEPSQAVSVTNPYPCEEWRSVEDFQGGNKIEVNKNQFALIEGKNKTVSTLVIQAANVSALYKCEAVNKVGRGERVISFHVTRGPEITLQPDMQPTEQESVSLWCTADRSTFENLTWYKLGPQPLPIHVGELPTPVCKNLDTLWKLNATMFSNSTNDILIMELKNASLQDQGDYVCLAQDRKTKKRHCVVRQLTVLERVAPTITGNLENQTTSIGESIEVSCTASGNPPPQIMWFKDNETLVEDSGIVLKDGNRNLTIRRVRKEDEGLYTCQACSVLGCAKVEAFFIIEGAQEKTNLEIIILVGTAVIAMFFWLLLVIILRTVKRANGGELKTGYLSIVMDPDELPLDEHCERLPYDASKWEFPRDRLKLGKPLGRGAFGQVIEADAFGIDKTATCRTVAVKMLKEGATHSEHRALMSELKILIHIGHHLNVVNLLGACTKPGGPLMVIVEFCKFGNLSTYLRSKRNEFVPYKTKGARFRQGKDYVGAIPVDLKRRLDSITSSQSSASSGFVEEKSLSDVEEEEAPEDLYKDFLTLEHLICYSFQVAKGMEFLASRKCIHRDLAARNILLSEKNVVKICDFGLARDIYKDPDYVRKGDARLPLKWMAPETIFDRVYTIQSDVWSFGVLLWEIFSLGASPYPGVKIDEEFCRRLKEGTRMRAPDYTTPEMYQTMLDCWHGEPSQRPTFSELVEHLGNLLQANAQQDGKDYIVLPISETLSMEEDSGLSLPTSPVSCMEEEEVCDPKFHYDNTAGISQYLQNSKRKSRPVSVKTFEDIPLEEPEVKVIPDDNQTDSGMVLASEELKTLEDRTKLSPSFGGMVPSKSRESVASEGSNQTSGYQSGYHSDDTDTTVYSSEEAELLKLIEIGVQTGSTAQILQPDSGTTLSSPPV

`O=c1cc(N2CCOCC2)oc2c(-c3ccccc3)cccc12` [LY 294002, reference compound]: in the assay with HUVEC cells (highest concentration of inhibitor, migration in response to native VEGF, 4 hours, FIG. 14B), the “inhibition of HUVEC cell migration” value is on record as 56%.
Consider “Native VEGF 165: 165-amino acid native vascular endothelial cell growth factor [reference compound]”, for which the Kd on Flt-1 receptor (Table 6, read-out: Binding affinity, FLT-1 Receptor (RIA), value in parentheses) turned out to be 0.037 nM. Moreover, the PLC-gamma phosphorylation entry in the assay on PLC-gamma in HUVEC cells was “able to stimulate PLC-gamma phosphorylation to a similar extent”.

B1: Flt-sel (I43A/I46A/Q79A/I83A, 1-109 short form) (ligand, human, UniProt P15692-4 27-135, looked up)
chain: APMAEGGGQNHHEVVKFMDVYQRSYCHPIETLVDIFQEYPDEAEYAFKPSCVPLMRCGGCCNDEGLECVPTEESNITMAIMRAKPHQGQHIGEMSFLQHNKCECRPKKD
notes: also called Flt-1-sel; Flt-1 selective variant
With B1, in [1], the “fold reduced KDR-binding affinity (against native VEGF (8-109))” value is at least 470 fold.

B2: Flt-1 selective VEGF variant: Flt-1 selective variant comprising a full length 165 sequence with I43A/I46A/Q79A/I83A (protein)
chain: APMAEGGGQNHHEVVKFMDVYQRSYCHPIETLVDIFQEYPDEAEYAFKPSCVPLMRCGGCCNDEGLECVPTEESNITMAIMRAKPHQGQHIGEMSFLQHNKCECRPKKD
In the case of B2, the “phosphorylation of ERK1 and ERK2” value in [2] is reported as “barely detectable phosphorylation of ERK2”. Besides, in the assay on PLC-gamma in HUVEC cells, the PLC-gamma phosphorylation entry is “did not increase PLC-gamma phosphorylation over background levels”. Moreover, the “promotion of HUVEC cell migration” value with HUVEC cells (18 hour assay, FIG. 14A) is reported as “unable to increase cell migration over background levels”. Also, the “induction of corneal angiogenesis” value in the assay with corneal angiogenesis is on record as “unable to stimulate angiogenesis over control levels”.

B3: LK-VRB-1s* (ligand, human, UniProt P15692-4 27-135, looked up)
chain: APMAEGGGQNHHEVVKFEDVLRRSSCHPIETLVDIFQEYPDEIEYIFKPSCVPLMRCGGCCNDEGLECVPTEESNITMQIMRIKPHQGQHIGEMSFLQHNKCECRPKKD
Consider B3, for which the “Phosphorylation-Inducing Activity (KIRA assay)” value in [3] is 0.5 ratio to native VEGF (8-109). The “Endothelial Cell Proliferation Activity (HUVEC, 3H-thymidine)” value in [4] was 0.2 ratio to native VEGF (8-109). In addition, the “Relative Binding Affinity, KDR Receptor: ratio to native VEGF (8–109)” value in the assay with KDR receptor was 1 nM/1. For the same molecule, the “Relative Binding Affinity, FLT-1 Receptor (RIA)” value in the assay with Flt-1 receptor (relative to native VEGF 165 = 1) is 14,000. Besides, the “relative binding affinity (ratio to native VEGF 165)” value in assay [5] is 20 ratio; in assay [6], 14000 ratio. In addition, the “relative binding affinity (ratio to native VEGF (8-109))” value with Flt-IgG amounted to 6000 ratio; with KDR (1-3) it was 1 ratio.

B4: PlGF: VEGF-related molecule that binds Flt-1 but not KDR (R & D Systems) (protein)
chain: AVPPQQWALSAGNGSSEVEVVPFQEVWGRSYCRALERLVDVVSEYPSEVEHMFSPSCVSLLRCTGCCGDENLHCVPVETANVTMQLLKIRSGDRPSYVELTFSQHVRCECRPLREKMKPERCGDAVPRR
Consider B4, for which, in the assay with corneal angiogenesis, the “induction of corneal angiogenesis” value is on record as “only a marginal response”.

These data come from US7090834B1, “Vascular endothelial cell growth factor variants and uses thereof” (Genentech, Inc., priority 1999, dated 2006).
